B1: S-adenosylmethionine synthase (MetK) (enzyme, E. coli)
chain: MAKHLFTSESVSEGHPDKIADQISDAVLDAILEQDPKARVACETYVKTGMVLVGGEITTSAWVDIEEITRNTVREIGYVHSDMGFDANSCAVLSAIGKQSPDINQGVDRADPLEQGAGDQGLMFGYATNETDVLMPAPITYAHRLVQRQAEVRKNGTLPWLRPDAKSQVTFQYDDGKIVGIDAVVLSTQHSEEIDQKSLQEAVMEEIIKPILPAEWLTSATKFFINPTGRFVIGGPMGDCGLTGRKIIVDTYGGMARHGGGAFSGKDPSKVDRSAAYAARYVAKNIVAAGLADRCEIQVSYAIGVAEPTSIMVETFGTEKVPSEQLTLLVREFFDLRPYGLIQMLDLLHPIYKETAAYGHFGREHFPWEKTDKAQLLRDAAGLK
notes: S-adenosylmethionine synthase MetK, obligate GroEL substrate of E. coli; 379 C-alpha atoms compared with PDB 7LOO; core loop residues 97-111; In vitro the protein was heat denatured (60 °C, 15 min) in the presence of GroEL before encapsulation; it stands in the chaperonin as a single subunit; also called fMetK (folded MetK); source: E. coli BL21(DE3): overexpressed from pET22b (T7 promoter, …)
B2: GroES (complex, E. coli, UniProt P0A6F9 1-97, looked up)
chain: MNIRPLHDRVIVKRKEVETKSAGGIVLTGSAAAKSTRGEVLAVGNGRILENGEVKPLDVKVGDIVIFNDGYGVKSEKIDNEEVLIMSESDILAIVEA
notes: GroES, E. coli co-chaperonin, heptamer of 10 kDa subunits; also called GroES 7-mer; lid-shaped cofactor GroES; source: E. coli BL21(DE3) Gold: endogenous or overexpressed from pBAD33 (with groEL, araBAD promoter), in cells

Columns and labels:
GroEL [1] = target: T1, GroEL (E. coli, UniProt P0A6F5 1-548); assay: SEC; Superdex 200 3.2/300 GL; complex formed from 4 uM MetK heat denatured (60 °C, 15 min) with 1 uM GroEL 14-mer in buffer A (20 mM MOPS-NaOH pH 7.4, 200 mM KCl, 10 mM MgCl2, 5 mM DTT) with 30 mM NaF and 5 mM BeSO4, then 2 uM GroES 7-mer and 1 mM ATP; fractions by SDS-PAGE and mass spectrometry (iBAQ); settings: both partners purified
T1 construct: GroEL, E. coli chaperonin, 57 kDa subunit; two heptameric rings; One molecule for endogenous, pBAD33-expressed and purified GroEL (same untagged protein, same host); also called GroEL 14-mer; GroEL14; source: E. coli BL21(DE3) Gold: endogenous or overexpressed from pBAD33 (araBAD promoter), in cells or in lysate; copies: 14
T1 sequence (P0A6F5 whole entry): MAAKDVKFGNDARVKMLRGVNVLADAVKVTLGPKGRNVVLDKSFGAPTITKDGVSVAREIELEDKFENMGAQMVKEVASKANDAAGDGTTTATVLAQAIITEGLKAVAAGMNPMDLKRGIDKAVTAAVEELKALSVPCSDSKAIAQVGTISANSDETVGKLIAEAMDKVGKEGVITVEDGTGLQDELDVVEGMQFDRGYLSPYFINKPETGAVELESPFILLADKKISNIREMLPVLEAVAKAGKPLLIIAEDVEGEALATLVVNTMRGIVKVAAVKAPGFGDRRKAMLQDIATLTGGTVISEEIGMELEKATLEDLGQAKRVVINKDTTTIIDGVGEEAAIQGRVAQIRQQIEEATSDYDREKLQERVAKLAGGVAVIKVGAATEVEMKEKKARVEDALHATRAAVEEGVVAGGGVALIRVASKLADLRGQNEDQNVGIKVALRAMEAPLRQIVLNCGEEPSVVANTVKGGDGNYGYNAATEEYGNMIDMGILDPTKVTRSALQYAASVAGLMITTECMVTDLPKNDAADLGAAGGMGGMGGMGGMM

GroEL [2] = target: T1, GroEL; assay: cryo-electron tomography with subtomogram averaging; in vitro reconstituted, isolated GroEL–GroES–MetK complexes with ADP–BeFx, imaged with the parameters of the in situ tomography; settings: both partners purified
GroEL [3] = target: T1, GroEL; assay: co-IP; GroEL antibody on protein A Sepharose; lysate of MetK-overexpressing cells with apyrase (25 U/ml) to arrest the GroEL cycle; HMK buffer, 1 h; immunoblot for GroEL and MetK and LC-MS/MS (iBAQ); settings: partners not purified
[4] = target: the molecule itself; assay: cryo-EM structure; single-particle analysis of in vitro reconstituted GroEL–GroES–MetK complexes with ADP–BeFx (non-cycling); control of GroEL and GroES treated identically without MetK

Binder	stoichiometry N (GroEL [1]) [MetK per GroEL 14-mer]	percent of chambers with strong density of folded MetK (class I) (GroEL [2]) [%]	stoichiometry N (GroEL [3])	binding result [4]
B1	~1.2	~40	~1.3 MetK molecules per GroEL complex	–
B2	–	–	–	binds
